Reference: paper PMC12488921
“And” between values parts separate entries of the source, which are not always exact repeats. Identical values can stand only once.

Assays:
Human DNAJB6b (human) [1] = molecular target: Human DNAJB6b (human) (UniProt O75190); test: mass photometry; JB6 equilibrated at different concentrations (1 to 100 μM), 20 mM NaP, 0.2 mM EDTA, pH 8.0, room temperature; samples above 200 nM diluted to 200 nM less than a minute before a 60 s measurement; also 5 μM JB6 with 0-1.25 M NaCl
Human DNAJB6b (human) [2] = molecular target: Human DNAJB6b (human) (UniProt O75190); test: mass photometry; dissociation kinetics: 34 μM non-labeled JB6 diluted to 50 nM at time zero, 22 and 37 °C; total micelle mass (N > 2) in 60 s of data collection against time

Human DNAJB6b, O75190-2 1-241 (natural protein; other documents disagree on this pair), sequence (O75190 other isoform, or with tags, fused parts or gaps): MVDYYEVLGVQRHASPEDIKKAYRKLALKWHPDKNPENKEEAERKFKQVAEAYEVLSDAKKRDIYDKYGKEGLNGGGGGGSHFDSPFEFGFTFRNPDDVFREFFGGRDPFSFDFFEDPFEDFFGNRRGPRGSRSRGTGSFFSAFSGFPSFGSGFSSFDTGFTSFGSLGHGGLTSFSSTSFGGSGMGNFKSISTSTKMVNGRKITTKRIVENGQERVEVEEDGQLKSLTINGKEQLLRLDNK

Substance: Human DNAJB6b, O75190-2 1-241 (natural protein; other documents disagree on this pair)
- stoichiometry N (Human DNAJB6b (human) [1]): 20 and 40
- time scale of micelle dissociation at 37 °C (Human DNAJB6b (human) [2]): 20 min
